From article PMC12081870 (Communications Biology, 2025)
Several values for one entry are separate records, joined by “and”; a condition that tells them apart may be missing. Equal entries are not always repeated. Ends that are not written are not given here.

Experiments:
[1] = test system: Las17-Arp2/3 mediated actin polymerisation; conditions: 15 nM Las17, 1 µM Sla1 SH3 domains, ref [13]; cited from earlier work
From the text: In Sla1 the first two SH3 domains are immediately juxtaposed with no linker. There are then 236 residues before the third SH3 domain (Fig. 1A).

[2] = test system: Las17 12mer peptides / GST-Sla1 SH3 domains; assay: Peptide spot array (Celluspot) of Las17 12mers probed with GST-Sla1 SH3 domains; format: binding, Saccharomyces cerevisiae; conditions: GST-Sla1 SH3 domain on 12mer array, 2-residue offset, anti-GST HRP, chemiluminescence
Method: A Purified individual GST-tagged Sla1 SH3 domains were used to probe a Celluspot array consisting of a series of 12 amino acid peptides starting with residue 181, and subsequent peptides starting at two amino acid intervals, up to amino acid 540. Binding of GST-Sla1 SH3 to the array was identified by further probing of HRP-tagged anti-GST and subsequent visualisation using chemiluminescence. […] Error bars are standard error of mean.
They were incubated with GST fused SH3 domains of Sla1 or with GST alone, as described in ref.[57]. Membranes were probed with HRP tagged anti-GST, and the presence of SH3-GST fusion protein was detected with ECL chemiluminescent detection solution (Thermo Fisher Scientific).

[3] = test system: Las17-GFP and Arc15-mCherry; assay: Dual-reporter lifetimes, Las17-GFP and Arc15-mCherry co-localisation; format: cell-based, Saccharomyces cerevisiae; parameters: lifetime, GFP alone / lifetime, GFP and RFP / lifetime, RFP: unit not given here; conditions: sheet Fig9E, individual endocytic patches, one per cell
Method: A size bar for each set of kymographs is shown on the upper right of each set. For (A) and (C) size bar is 100 nm and for B is 200 nm. Error bars are standard deviation. […] The site of interest is labelled in the first two time panels with a white arrow. Exposure 0.5 sec with 1 second time lapse. 120 s recorded. […] Error bars are standard deviation.
Individual spots were analysed for lifetimes and behaviours.
Yeast strains used in this study are listed in Supplementary table 2 and plasmids used in Supplementary table 1. Unless stated otherwise, cells were grown with rotary shaking at 30 °C in liquid YPD medium (1% yeast extract, 2% Bacto-peptone, 2% glucose supplemented with 40 μg/ml adenine) or in synthetic medium (0.67% yeast nitrogen base, 2% glucose) with appropriate supplements. […] DNA cassettes carrying mutations for integration were transformed into KAY1801. Mutant colonies were counter-selected on minimal medium, containing 0.005% uracil and 0.1% 5’-Fluoroorotic Acid (5-FOA; Melford laboratories). Allele exchange, in growing Ura3^-, 5-FOA resistant colonies, was confirmed by PCR and sequencing.
For live-cell imaging, cells expressing tagged proteins were visualised after growing to early log phase. Analysis was carried out at room temperature (22 °C). […] Images were taken simultaneously on separate scientific complementary metal oxide semiconductor (sCMOS) cameras (30 msec exposure). Seven 250 nm sections were acquired every 0.5 sec (241 time points). The stacks were then deconvolved and processed, using SoftWorx. Protein localisation and lifetime was analysed from those projections. Fiji software was used to assemble movies and kymographs, to track and record behaviour of individual spots. Graphs show mean ± SD. […] Where appropriate data was tested for normal distribution using Graphpad Prism software, and then subjected to the appropriate test as described in the methods for each experiment type.

[4] = target: T1, Sla1 SH3#1-2 tandem domains (aa 5-131) (S. cerevisiae, UniProt P32790 5-131, 15N-labelled (NMR only)); assay: NMR titration; 15N-labelled Sla1 SH3 domains, 1H-15N HSQC; concentrated peptide stocks in the same buffer and pH added stepwise (0 to 8 equivalents shown); shift changes fitted to the standard quadratic equation; conditions: both partners purified
T1 construct: Sla1, S. cerevisiae, first two SH3 domains (juxtaposed, no linker), residues 5-131; also called Sla1 SH3 domains 1 and 2; tandem SH3#1&2 domain; source: E. coli, purified (GST fusion, cleaved with Prescission protease; His-tagged Sla1-SH3 domains were also made); 15N- or 15N,13C-labelled for NMR
T1 sequence (looked up): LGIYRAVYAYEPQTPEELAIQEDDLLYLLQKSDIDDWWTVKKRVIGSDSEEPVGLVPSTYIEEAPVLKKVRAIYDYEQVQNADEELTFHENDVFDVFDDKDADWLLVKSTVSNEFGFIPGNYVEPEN

[5] = target: Las17 PPR-N fragment (residues 300-422); assay: Biolayer Interferometry (BLI), Sla1 SH3 domains to Las17 PPR-N; format: binding, Saccharomyces cerevisiae; conditions: Biolayer Interferometry, Octet R2, Las17 (aa 300-422); three repeats with newly prepared protein; read-out: binding affinity (Kd)
From the text: To investigate binding characteristics of the SH3 domains further, Sla1 SH3 protein domains were purified. Three Sla1 SH3 single domains, tandem domains Sla1 SH3#1&2, Sla1 SH3#1&2 W108A (in which the W108A mutation prevents proline motif binding by SH3#2 but not SH3#1) and a fragment with all three SH3 domains were expressed recombinantly and purified. […] This outcome is in line with original research of Rodal and colleagues and with more recent studies of avidity developed by Williamson, which highlighted the importance of tandem binding SH3 domains[13],[27].
Biolayer Interferometry (BLI) assays were performed using an OctetⓇ R2 (Sartorius). Protein samples were placed into the wells of a polystyrene plate (ProxiPlateTM, Perkin Elmer) and binding measured either with Octet NTA Biosensors or Octet GST Biosensors. Screening assays were performed to determine the optimum loading concentration and time for each binding pair to ensure that the probe was not saturated. All experiments were repeated three times, each time with newly prepared protein. Analysis and visualisation were performed using GraphPad Prism 10.0.2.

[6] = target: T2, Las17 PPR-N fragment (residues 300-422), wild type (S. cerevisiae, UniProt Q12446 300-422); assay: BLI; Octet R2 (Sartorius); Octet NTA Biosensors or Octet GST Biosensors, which partner was loaded is not stated; repeated three times; the constant of SH3#1-3 is called apparent; conditions: both partners purified
T2 construct: Las17 (yeast WASP family protein, Las17/Bee1), S. cerevisiae, residues 300-422 (N-terminal half of the polyproline region, PPR-N); also called Las17(300-422); Las17 300-422; source: E. coli, purified (GST fusion on glutathione Sepharose, cleaved with PreScission Protease; a His-tagged form purified on a nickel column was also made)

[7] = Liposome co-sedimentation assay; format: binding; parameters: unit: %
Method: Liposome binding assays were carried out as described previously. To prepare liposomes 11 μl of a 25 mg/ml solution of Folch fraction-1 was dried under a nitrogen stream. They were washed in chloroform, dried under nitrogen, and further washed with diethyl ether to remove all traces of chloroform before being dried again. The dried lipid mixture was resuspended in 200 µl of buffer B (20 mM HEPES pH 7.2, 100 mM KCl, 2 mM MgCl2, 1 mM DTT) at 37 °C for 30 min with regular gentle agitation. Liposomes were then extruded 11 times through polycarbonate filters with 1.0 μm pores. For liposome binding assays 20 μM Sla1 (pre-spun at 313,000 × g for 15 min) was mixed with 20 μl liposomes in buffer B, (final volume 50 µl) and incubated at room temperature for 15 min. Liposomes and bound protein were pelleted by centrifugation at 250,000 × g for 15 min, and supernatants and pellets carefully separated. The pellets were resuspended in 50 µl buffer B and samples were analysed by SDS-PAGE. The proportion of protein in each sample was determined by densitometry of the Coomassie stained gels using a BioRad GelDoc. Replicate experiments were carried out with protein from different preparations. To normalise the data the amount of protein in the supernatant and pellet of each sample was added together to give a value for 100%, and then the % in either the supernatant or pellet alone was calculated. When liposomes were included in the pyrene actin assay they were prepared as described for liposome binding assays, but the dried lipid mixture was resuspended in 5×KME in place of liposome buffer. This was then used as a source of KME in the pyrene actin assay as well as a source of lipid. Mean ± SD is shown n = 6. Sîdák’s multiple comparisons test was carried out using Graphpad Prism software, **** denotes two tailed P value of < 0.0001.
Liposome binding studies: triplicate experiments were carried out with protein from different preparations. To normalise the data the amount of protein in the supernatant and pellet of each sample was added together to give a value for 100%, and then the % in either the supernatant or pellet alone was calculated. Mean ± SD is shown n = 6. Sîdák’s multiple comparisons test was carried out using Graphpad Prism software, **** denotes two tailed P value of < 0.0001.

Sla1 SH3#3: SH3#3 (aa 354-413) (SKKRGIVQYDFMAESQDELTIKSGDKVYILDDKKSKDWWMCQLVDSGKSGLVPAQFIEPV; also: 15N-labelled)
inhibition of actin polymerisation activity [1]: not | binding to Las17 peptide spots [2]: strongest binding for peptides in proline tracts 1 and 3

wt: wild type cells with Las17-GFP and Arc15-mCherry
lifetime, GFP alone [3]: 20 (3×) and 22 (4×) and 18 (2×) and 28 and 24 and 26 (2×) | lifetime, GFP and RFP [3]: 30 and 44 and 36 and 32 (4×) | lifetime, RFP [3]: 34 and 48 and 44 and 36 (3×) and 46

B1: Las17 peptide p1 (PP1 motif) (peptide)
peptide: RNNRPVPPPPPMRTTTEGSGVR
notes: Las17, S. cerevisiae, first PP motif; also called peptide 1; source: synthetic peptide (GenScript Biotech, UK)
Kd at site SH3#1 [4]: ~70 µM | Kd at site SH3#2 [4]: ~550 µM

B2: Sla1 SH3 1&2-W108A: W108A mutation prevents proline motif binding by SH3#2 but not SH3#1 (protein, UniProt P32790 5-131, looked up, variant W108A)
chain: LGIYRAVYAYEPQTPEELAIQEDDLLYLLQKSDIDDWWTVKKRVIGSDSEEPVGLVPSTYIEEAPVLKKVRAIYDYEQVQNADEELTFHENDVFDVFDDKDADALLVKSTVSNEFGFIPGNYVEPEN
Kd [5]: 7.4 µM

B3: Sla1 SH3#3 (aa 354-413) (domain or fragment, S. cerevisiae, UniProt P32790 354-413, looked up)
chain: SKKRGIVQYDFMAESQDELTIKSGDKVYILDDKKSKDWWMCQLVDSGKSGLVPAQFIEPV
modifications: also: 15N-labelled
notes: Sla1, S. cerevisiae, third SH3 domain, residues 354-413; also called Sla1 SH3 domain 3; source: E. coli, purified (GST fusion, GST removed with thrombin; His-tagged Sla1-SH3 domains were also made); 15N-labelled for NMR
Kd [6]: 16 µM

B4: Sla1 SH3#1 (aa 3-68) (domain or fragment, S. cerevisiae, UniProt P32790 3-68, looked up)
chain: VFLGIYRAVYAYEPQTPEELAIQEDDLLYLLQKSDIDDWWTVKKRVIGSDSEEPVGLVPSTYIEEA
notes: Sla1, S. cerevisiae, first SH3 domain, residues 3-68; also called Sla1 SH3 domain 1; source: E. coli, purified (GST fusion, GST removed with thrombin; His-tagged Sla1-SH3 domains were also made)
Kd [6]: 7.5 µM

B5: Sla1 SH3#1: Sla1 SH3#1 (aa 3-68) (protein)
chain: VFLGIYRAVYAYEPQTPEELAIQEDDLLYLLQKSDIDDWWTVKKRVIGSDSEEPVGLVPSTYIEEA
modifications: left off: GST, end not stated, kept
inhibition of actin polymerisation activity [1]: about 80% | binding to Las17 peptide spots [2]: preference for sequences in the Las17 proline tracts 2 and 3

B6: GST-Sla1 SH3#1-3: GST-tagged Sla1 SH3#1-3 containing the predicted PH domain (protein, UniProt P32790 5-413, looked up, fragment)
chain: LGIYRAVYAYEPQTPEELAIQEDDLLYLLQKSDIDDWWTVKKRVIGSDSEEPVGLVPSTYIEEAPVLKKVRAIYDYEQVQNADEELTFHENDVFDVFDDKDADWLLVKSTVSNEFGFIPGNYVEPENGSTSKQEQAPAAAEAPAATPAAAPASAAVLPTNFLPPPQHNDRARMMQSKEDQAPDEDEEGPPPAMPARPTATTETTDATAAAVRSRTRLSYSDNDNDDEEDDYYYNSNSNNVGNHEYNTEYHSWNVTEIEGRKKKKAKLSIGNNKINFIPQKGTPHEWSIDKLVSYDNEKKHMFLEFVDPYRSLELHTGNTTTCEEIMNIIGEYKGASRDPGLREVEMASKSKKRGIVQYDFMAESQDELTIKSGDKVYILDDKKSKDWWMCQLVDSGKSGLVPAQFIEPV
modifications: GST tag
notes: GST-tagged Sla1 SH3#1-3 containing the predicted PH domain
liposome co-sedimentation ([7]; 20 μM Sla1, buffer B, room temperature 15 min, 250,000 × g): co-precipitates with liposomes | liposome co-sedimentation ([7]; - lipid, replicate 1): 0 | liposome co-sedimentation ([7]; - lipid, replicate 2): 11.5044 | liposome co-sedimentation ([7]; - lipid, replicate 3): 0 | liposome co-sedimentation ([7]; - lipid, replicate 4): 2.9 | liposome co-sedimentation ([7]; - lipid, replicate 5): 3 | liposome co-sedimentation ([7]; - lipid, replicate 6): 5

B7: Las17 peptide p3 (PP3 motif) (peptide)
peptide: LPAQTGRRGPAPPPPPRASRPTP
notes: Las17, S. cerevisiae, third PP motif; also called peptide 3; source: synthetic peptide (GenScript Biotech, UK)
Kd at site SH3#1 [4]: ~24 µM | Kd at site SH3#2 [4]: ~190 µM
